The text below walks through data of US20030153066A1.

The target in this experiment is HIV-1 Gag Pr55 (wild-type) (HIV-1) (UniProt P03348). In words: cell-based or functional assay.

In turn, “HuHP68-GST fusion protein (from UniProt P61221 1-599)” gave an amount of 750S capsid in HP68-immunodepleted cell-free reactions after reconstitution of 3 fold.
As for WGHP68-GST fusion protein, the amount of 750S capsid in HP68-immunodepleted cell-free reactions after reconstitution is 3 fold.
